In PMC5768779:

System: USP48 (isoform 1)
Assay: EMSA
Details: 50 nM NCP, estimated from first distinct shift, higher species above 4 uM, EMSA: 50 nM NCP, native gel, SPR: immobilized nucleosomes, 10 successive USP48 injections, one-phase binding fit, binding buffer, pH and temperature not in …

Substance “NCP H2A-BRCA1ub (multi-monoubiquitinated, Widom 601, 147 bp)” has a Kd (histone H2A multi-monoubiquitinated at the C-terminal BRCA1 site (K125/K127/K129), DNA unmodified) of 1000 nM.

NCP unmodified (Widom 601, 147 bp) showed a Kd of 1000 nM.
